Measured values: the supplement of paper PMC10724198
± gives the standard deviation of the averaged measurements.

system: Saccharomyces cerevisiae; assay: protein stability index of tFT-peptide fusion (C-terminal peptide) (PSI (0-1 scale)); higher = more stable (slower turnover); settings: genetic background: wild type; temperature: 30 C
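Note: PSI is a weighted mean of sequencing reads over stability bins, variants kept only with over 10 reads, mCherry proximal and sfGFP distal, peptide attached via GGGS linker.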

In order of falling protein stability index:
1. STSLLTRTSSKL  0.792 ± 0.015
2. TACIVGLRLMRL  0.787 ± 0.063
3. SSPAYPYWTRIF  0.777 ± 0.14
4. SSSLSRLIPRDV  0.774 ± 0.062
5. SSRELVDGVGIA  0.763 ± 0.068
6. SSWWGARVARRG  0.756 ± 0.041
7. SWFVGFEGAVGG  0.7563 ± 0.0046
8. SVGIWSYGLCWF  0.753 ± 0.055
9. SVGQWSGGRACW  0.751 ± 0.043
10. SWTWLFGFRRGL  0.746 ± 0.11
11. SSGAIKPDFRMA  0.7446 ± 0.005
12. SVAQHLRNGNMC  0.745 ± 0.13
13. SSPAPPPPSPAS  0.744 ± 0.043
14. SSSPLPPLRLCL  0.743 ± 0.041
15. SVGSSGFMLFCL  0.741 ± 0.18
16. SSRCRGYLFVDG  0.738 ± 0.043
17. SSFGIVWKKDAI  0.736 ± 0.053
18. SWPDVCLTSPLS  0.731 ± 0.042
19. SWVIRSDLHYAL  0.731 ± 0.032
20. TALQNAAPRTAS  0.73 ± 0.11
21. STVGRFPLSFHH  0.726 ± 0.062
22. SSPFPPLTTPSP  0.7245 ± 0.0044
23. STGPFFMIKGSF  0.72 ± 0.027
24. TALGVCPRVMQN  0.718 ± 0.039
25. STPPPRSLPSPP  0.716 ± 0.045
26. SSPYPGNVVTST  0.7133 ± 0.0015
27. TALKNLPSVSSV  0.712 ± 0.1
28. TARGIRGICKSI  0.711 ± 0.021
29. TASVDQAVRWRG  0.708 ± 0.054
30. SVRVRKGRYDNK  0.707 ± 0.018
31. STGRTSVNLCFS  0.706 ± 0.041
32. SVKESKIQQNRE  0.705 ± 0.11
33. SSPLTPAPLCSS  0.702 ± 0.1
34. SVGCRRGMDSRV  0.702 ± 0.04
35. SSTLVAFRFPSP  0.7014 ± 0.0043
36. SSLPSSLSPLTS  0.699 ± 0.024
37. SSLSPGFPLPSS  0.6989 ± 0.0014
38. SYSPRRRLNTPR  0.699 ± 0.058
39. SSNVTVLGVLYC  0.6973 ± 0.0049
40. SSPTSSAPPPFL  0.697 ± 0.022
41. SVDRVIPQERQS  0.697 ± 0.013
42. TCPDSVMDRLDS  0.696 ± 0.12
43. SSLSFHPLPLAP  0.695 ± 0.03
44. SSLTCLLFPPGY  0.695 ± 0.012
45. SVAPRPPFPFAI  0.694 ± 0.026
46. SWAFAGGGAATG  0.694 ± 0.011
47. SVRSYYVRSMLE  0.692 ± 0.076
48. STTCPTGLTVGR  0.69 ± 0.054
49. SSNKSKNNHSNM  0.688 ± 0.031
50. STPFALVFLPFP  0.688 ± 0.034
51. SSLRSFPLLEHT  0.6857 ± 0.0012
52. SSRAGVRRPHSR  0.685 ± 0.053
53. SVWGGVPLVRET  0.6854 ± 0.0015
54. SSYGPAKSLGCA  0.684 ± 0.023
55. SSLGNSFYLSPH  0.683 ± 0.033
56. SSPPFPLSLPLY  0.682 ± 0.0017
57. STWSLLKVGPAR  0.6785 ± 0.0015
58. SSRVALRIPGIG  0.678 ± 0.024
59. TAYRFYSYESSF  0.678 ± 0.082
60. SWFSPMCTTSPR  0.677 ± 0.04
61. SSPFPVPLSRPS  0.6759 ± 0.0032
62. STVESPNSLPPL  0.676 ± 0.037
63. STCVRSRTCETP  0.675 ± 0.021
64. TAHPCVYRRGAV  0.675 ± 0.021
65. SSSPFVSDFLTL  0.673 ± 0.042
66. SYLDWFLVLDMF  0.6706 ± 0.0047
67. SVPPPPRTPSSI  0.666 ± 0.03
68. SRVWVGQMIRGR  0.664 ± 0.019
69. STASSFFFFCCF  0.664 ± 0.026
70. SVRSVFVFGVIK  0.664 ± 0.017
71. TCDGSCRRGDLR  0.663 ± 0.066
72. SVIRTRYSSARM  0.662 ± 0.057
73. SVAWGGGVVEWG  0.661 ± 0.11
74. SVVLGSVHVLTR  0.661 ± 0.015
75. SSGSRCQQKIRY  0.66 ± 0.11
76. SSLPRLGSSPRR  0.66 ± 0.019
77. SVLVHSFRSVNV  0.66 ± 0.002
78. SVVFSQCLVNLG  0.659 ± 0.062
79. TAFGLMRQPCMG  0.657 ± 0.052
80. SWHTSRPPPPPF  0.656 ± 0.013
81. SVLRRKDKGKRG  0.654 ± 0.014
82. SWQSRISLRIST  0.648 ± 0.041
83. SYLTQNGYAFRQ  0.644 ± 0.082
84. STGAVGVSVCEG  0.64 ± 0.022
85. SVHTQLSPMDTT  0.64 ± 0.018
86. SVSVLSPPPLPP  0.636 ± 0.015
87. SSRVWPRRRSTA  0.634 ± 0.052
88. SYRLILGSSPHP  0.619 ± 0.089
89. SRVVTSRLVLSS  0.606 ± 0.017
90. SYLFRLLFATLP  0.601 ± 0.033
91. SVLVCSAIVIRK  0.5998 ± 0.00079
92. SVILRMIGQKIK  0.596 ± 0.038
93. TAGIIINCPIYL  0.596 ± 0.038
94. TALGLILSSFVY  0.595 ± 0.067
95. SYNYMSIVMYRL  0.587 ± 0.0071
96. STPHPPPILHVL  0.581 ± 0.013
97. SSERVLVRRRGS  0.566 ± 0.12
98. SVSGRYYAVRVR  0.566 ± 0.0072
99. STRGGLCFLRWV  0.5543 ± 0.0019
100. SSPLYSLLVLFQ  0.54 ± 0.037
101. TCLIFTCVLKFR  0.485 ± 0.098
